Literature values, collected in PMC7302117.
pKd: −log10 of the molar value.

Target: ELK1 (Homo sapiens) (UniProt P19419)
Sequence of UniProt P19419 (P19419 whole entry): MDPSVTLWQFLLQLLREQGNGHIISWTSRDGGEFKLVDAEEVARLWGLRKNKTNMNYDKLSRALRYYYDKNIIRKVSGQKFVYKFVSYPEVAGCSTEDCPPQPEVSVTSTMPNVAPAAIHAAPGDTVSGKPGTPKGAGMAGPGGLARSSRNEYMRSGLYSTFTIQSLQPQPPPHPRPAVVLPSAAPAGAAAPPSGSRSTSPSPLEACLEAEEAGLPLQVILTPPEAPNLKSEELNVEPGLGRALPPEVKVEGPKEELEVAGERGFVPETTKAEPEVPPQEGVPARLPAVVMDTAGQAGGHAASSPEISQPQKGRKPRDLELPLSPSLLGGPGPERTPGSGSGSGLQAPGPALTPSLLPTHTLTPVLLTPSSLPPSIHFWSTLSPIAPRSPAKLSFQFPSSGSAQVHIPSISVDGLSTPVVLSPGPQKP

- pKd: 7.70
Substance: Androgen receptor A/B domain (from UniProt P10275)
